Where no end group is shown, it is not given here.
Experiment: First-order nonenzymatic deamidation of pentapeptides in Tris buffer
Type: physicochemical
Conditions: pH 7.4, 37.0° C., 0.15 M Tris HCl; Asn pentapeptides
Procedure, shortened: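 First-order deamidation rates determined for XxxAsnYyy and XxxGlnYyy pentapeptides in 0.15 M Tris buffer, pH 7.4, 37° C. Not all values were measured directly: several Asn rates were estimated and most Gln rates came from surface fitting.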

| Substance | First-Order Deamidation Halftimes of GlyXxxAsnYyyGly [days] |
| --- | --- |
| GlyAmCysAsnLysGly (CNKG; not fully specified (N-terminus); printed as GlyAmCysAsnLysGly) | 48.9 |
| GlyAmCysAsnThrGly (CNTG; not fully specified (N-terminus); printed as GlyAmCysAsnThrGly) | 41.7 |
| GlyArgAsnTyrGly (GRNYG; printed: GlyArgAsnTyrGly) | 90.0 |
| GlyArgAsnLeuGly (GRNLG; printed: GlyArgAsnLeuGly) | 128 |
| GlyLysAsnGlyGly (GKNGG; printed: GlyLysAsnGlyGly) | 1.02 |
| GlyLysAsnValGly (GKNVG; printed: GlyLysAsnValGly) | 246 |
| GlyThrAsnValGly (GTNVG; printed: GlyThrAsnValGly) | 237 |
| GlySerAsnProGly (GSNPG; printed: GlySerAsnProGly) | 7060 |
| GlyAlaAsnProGly (GANPG; printed: GlyAlaAsnProGly) | 7370 |
| GlyIleAsnAspGly (GINDG; printed: GlyIleAsnAspGly) | 33.8 |
| GlyTyrAsnTyrGly (GYNYG; printed: GlyTyrAsnTyrGly) | 70.6 |
| GlyLysAsnSerGly (GKNSG; printed: GlyLysAsnSerGly) | 15.6 |
| GlySerAsnThrGly (GSNTG; printed: GlySerAsnThrGly) | 45.7 |
| GlyAlaAsnMetGly (GANMG; printed: GlyAlaAsnMetGly) | 59.2 |
| GlyAlaAsnLysGly (GANKG; printed: GlyAlaAsnLysGly) | 55.9 |

Same assay, conditions: pH 7.4, 37.0 ° C., 0.15 M Tris HCl; Gln pentapeptides; 52 values measured, rest derived from surface fitting

| Substance | First-Order Deamidation Halftimes of GlyXxxGlnYyyGly [days] |
| --- | --- |
| GlyArgGlnSerGly (GRQSG; printed: GlyArgGlnSerGly) | 4300 |
| GlyProGlnMetGly (GPQMG; printed: GlyProGlnMetGly) | 4500 |
| GlyGlyGlnGlyGly (GGQGG; printed: GlyGlyGlnGlyGly) | 650 |
| GlyValGlnPheGly (GVQFG; printed: GlyValGlnPheGly) | 7200 |
| GlyMetGlnAlaGly (GMQAG; printed: GlyMetGlnAlaGly) | 4400 |
| GlyTrpGlnProGly (GWQPG; printed: GlyTrpGlnProGly) | 11000 |
| GlyLeuGlnAlaGly (GLQAG; printed: GlyLeuGlnAlaGly) | 6000 |
| GlyAspGlnAlaGly (GDQAG; printed: GlyAspGlnAlaGly) | 7100 |
| GlyGlyGlnProGly (GGQPG; printed: GlyGlyGlnProGly) | 10000 |
| GlySerGlnThrGly (GSQTG; printed: GlySerGlnThrGly) | 5400 |
| GlyLeuGlnThrGly (GLQTG; printed: GlyLeuGlnThrGly) | 5300 |
| GlyThrGlnAspGly (GTQDG; printed: GlyThrGlnAspGly) | 6300 |
| GlyAlaGlnGluGly (GAQEG; printed: GlyAlaGlnGluGly) | 7300 |
